The numbers were not newly measured in paper doi:10.1101/2023.06.05.542125, which cites them from elsewhere.

Where two headings read alike, the source gives them in different places.

The target of data set [1] is RNA polymerase elongation complex (Escherichia coli) (UniProt P0A7Z4).
Data set [2] has the same target. The source holds these as a separate data set.

Sequence of GreA (P0A6W5 whole entry): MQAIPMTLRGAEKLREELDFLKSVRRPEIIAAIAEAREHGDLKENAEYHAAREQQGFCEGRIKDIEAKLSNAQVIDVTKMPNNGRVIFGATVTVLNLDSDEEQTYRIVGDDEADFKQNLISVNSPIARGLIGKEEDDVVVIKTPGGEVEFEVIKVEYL
Sequence of GreB (P30128 whole entry): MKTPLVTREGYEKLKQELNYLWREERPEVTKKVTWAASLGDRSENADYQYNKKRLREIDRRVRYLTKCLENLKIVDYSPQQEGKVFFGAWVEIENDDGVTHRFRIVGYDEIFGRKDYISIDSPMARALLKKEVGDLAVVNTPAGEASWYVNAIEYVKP

Broadly, the Kd is the concentration at which binding is half-saturated. GreA (from UniProt P0A6W5): the dissociation constant (Kd) in data set [1] was 1000 nM.
In the case of GreB (from UniProt P30128), in data set [2], the Kd is 100 nM.
